Residue numbers refer to the chain shown, from its start. Numbers in names are those of the source.
Target: human DLL3 on DLL3-expressing tumor cell lines (human) (UniProt Q9NYJ7)
Assay: cell-based or functional assay

Chain of human DLL3 on DLL3-expressing tumor cell lines (human) (Q9NYJ7 27-618 limits assumed): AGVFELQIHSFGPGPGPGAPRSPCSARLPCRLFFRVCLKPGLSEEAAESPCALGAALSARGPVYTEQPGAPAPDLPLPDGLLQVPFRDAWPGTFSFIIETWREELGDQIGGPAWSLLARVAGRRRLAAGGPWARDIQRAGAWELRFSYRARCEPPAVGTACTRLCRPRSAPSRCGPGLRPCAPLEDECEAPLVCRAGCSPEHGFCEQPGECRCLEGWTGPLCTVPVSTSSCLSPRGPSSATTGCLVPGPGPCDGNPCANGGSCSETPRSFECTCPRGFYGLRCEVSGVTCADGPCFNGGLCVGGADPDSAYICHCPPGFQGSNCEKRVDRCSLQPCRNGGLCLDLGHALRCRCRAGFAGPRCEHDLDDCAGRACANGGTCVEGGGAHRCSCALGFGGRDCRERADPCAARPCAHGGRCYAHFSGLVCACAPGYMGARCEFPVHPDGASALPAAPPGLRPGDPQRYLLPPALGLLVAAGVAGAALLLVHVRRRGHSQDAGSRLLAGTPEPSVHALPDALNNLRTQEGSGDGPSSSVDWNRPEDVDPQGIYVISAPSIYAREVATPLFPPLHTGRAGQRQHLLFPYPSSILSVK

B1: 4D09-M34L anti-DLL3 trispecific protein (protein, not shown: large carriers)
chain: EVQLVESGGGLVQPGGSLTLSCAASGSSVKFLSLAWYRQAPGKKRELVAGISADGSTDYILSVKGRFTISRDNAKNSVYLQMNSLRAEDTAVYYCYAYEWTTRYTYWGQGTLVTVSS
  DMS-153 TDCC EC50: 0.054 nM
  fold TDCC potency over the parental molecule DH6: 4.4 fold

B2: 4H11-M34L anti-DLL3 trispecific protein (protein, not shown: large carriers)
chain: B1 chain with K30S, F31R, A53V, L61D, E99R, Y104L
  DMS-153 TDCC EC50: 0.13 nM

B3: 2F11 anti-DLL3 trispecific protein (protein, not shown: large carriers)
chain: EVQLVESGGGLVQPGGSLTLSCVASGSVSSINAMGWYRRAPGKQRELVAGISSDGSKVYKDSVKGRFTISRDNAKNSVYLQMNSLRAEDTAVYYCYYFRTVSGSSMGYWGQGTLVTVSS
  DMS-153 TDCC EC50: 0.049 nM

B4: 2E05-M106Q anti-DLL3 trispecific protein (protein, not shown: large carriers)
chain: B3 chain with V28P, M34Y, K60S, M106Q, G107S
  DMS-153 TDCC EC50: 0.041 nM
  fold TDCC potency over the parental molecule DH43: 6.6 fold

B5: 2E05-M106Y anti-DLL3 trispecific protein (protein, not shown: large carriers)
chain: B3 chain with V28P, M34Y, K60S, M106Y, G107S
  DMS-153 TDCC EC50: 0.063 nM

— patent publication US20240141072A1
